Source: paper PMC3575409, “Identification of a Novel Protein-Protein Interaction Motif Mediating Interaction of GPCR-Associated Sorting Proteins with G Protein-Coupled Receptors” (PLoS ONE, 2013)

Tests used:
GST-fused ADRB1 C-tail = experiment: GST-pull down, ADRB1 C-tail; format: binding; conditions: percent of input; data not shown
Source text: (§1) cDNAs encoding the cytoplasmic C-tail of 14 GPCRs and 2 one-transmembrane receptors were cloned into the pGEX-2T prokaryotic expression vector downstream the GST sequence. The following pGEX constructs were engineered: pGEX-DOR encoding residues 314–372 of the δ-opioid receptor (referring to Swiss-Prot accession number U10504), pGEX-MOR encoding residues 334–400 of the µ-opioid receptor (L29301), pGEX-KOR encoding residues 326–380 of the κ–opioid receptor (U17298), pGEX-ORL1 encoding residues 315–370 of the opioid receptor-like 1 (X77130), pGEX-M1 encoding residues 414–460 of the muscarinic M1 acetylcholine receptor (X52068), pGEX-M2 encoding residues 436–466 of the muscarinic M2 acetylcholine receptor (M16404), pGEX- ADRB1 encoding residues 373–477 of the β1 adrenergic receptor (J03019), pGEX-ADRB2 encoding residues 322–413 of the β2 adrenergic receptor (P07550), pGEX-CALCR encoding residues 407–490 of the calcitonin receptor (L00587), pGEX-CNR2 encoding residues 295–360 of the cannabinoid type 2 receptor (P34972), pGEX-5HT7 encoding residues 380–445 of the 5-hydroxytryptamine 7 receptor (L21195), pGEX-H2 encoding residues 284–349 of the histamine 2 receptor (S57565), pGEX-TXA2 encoding residues 304–343 of the α isoform of the thromboxane A2 receptor (D38081), pGEX-FZ4 encoding residues 493–537 of the frizzled 4 receptor (AB032417), pGEX-TGFβ encoding residues 805–849 of the type III transforming growth factor b receptor (L07594), pGEX-IGF1 encoding residues 1268–1367 of the insulin growth factor I receptor (X04434). Free GST was produced by using the pGEX-4T3 expression vector without insert. The same plasmid was used to clone the cDNA encoding a central domain of GASP-1, corresponding to amino acids 380 to 1073, downstream the GST sequence. All these plasmids were transformed into the Escherichia coli BL21 strain and expression was induced using 1mM of isopropylthiogalactoside for 2 h at 37°C. Bacteria were then pelleted, resuspended in PBS supplemented with cOmplete protease inhibitors (Roche), lysed at 1.5 kbar using a basic Z cell disrupter (constant system) and finally the lysates were cleared by centrifugation (10,000g, 15 min, 4°C).
(§2) cDNAs encoding GASP-1 and GASP-2 were cloned into the pcDNA3 eukaryotic expression vectors. cDNAs encoding GASP-3, -6, -7, and -9 were subcloned into pcDNA3.1 vectors. All the clones were controlled by DNA sequencing. The in vitro production was performed by using the TNT Quick-coupled Transcription/Translation T7 kit (Promega) in presence of [^35S]-Methionine according to the instructions from the manufacturer.
(§3) GST-fusion proteins were immobilized on glutathione-coupled Sepharose beads (GE Healthcare) for 1 h at 4°C and incubated with [^35S]-labelled in vitro translated GASP proteins or their truncated or mutated forms in ice-cold binding buffer containing: 20 mM Tris-HCl pH 7.4, 150 mM NaCl, 1 mM EDTA, 1 mM DTT, 10% glycerol and 1% Triton X-100. The mixture was incubated for 1 h at 4°C with gentle rocking. The beads were washed five times with the same ice-cold buffer, resuspended in 30 µl SDS-PAGE sample buffer, incubated 10 min at 65°C, and pelleted for 60 s at 3000 g. The supernatants were then analyzed by SDS-PAGE, the gels were stained with Coomassie blue to visualize GST-fusion proteins, dried and analyzed using a Phosphor-imager (Personal Molecular Imager FX, Biorad) to visualize [^35S]-labelled GASPs. Quantification was performed with the Quantity One software (Biorad). GST-pull down quantification data were analyzed using GraphPad Prism 4.03 (GraphPad Software). Quantifications presented are means of at least three independent experiments.

GST-fused DOR C-tail [1] = conditions: previous study; ref [6]; cited from earlier work
Source text: We therefore hypothesized that this conserved carboxyl-terminal domain could be critical for the interaction of GASPs with GPCRs.

GST-fused FZ4 C-tail = experiment: GST-pull down, FZ4 C-tail; format: binding; conditions: strong = >10% of GASP input
Experimental: (§4) cDNAs encoding the cytoplasmic C-tail of 14 GPCRs and 2 one-transmembrane receptors were cloned into the pGEX-2T prokaryotic expression vector downstream the GST sequence. […]
as §3, with “The mixture was incubated for 1 h at 4°C with gentle rocking. The beads were washed five times with the same ice-cold buffer, resuspended in 30 µl SDS-PAGE sample buffer, incubated 10 min at 65°C, and pelleted for 60 s at 3000 g.” left out

GST-fused DOR C-tail [2] = experiment: GST-pull down, DOR C-tail; format: binding; conditions: among the opioid receptors
Source text: as §1, §2, §3

[3] = tested on: GST-fused TGFβ (type III transforming growth factor β receptor) C-tail; experiment: GST-pull down, TGFβ C-tail; format: binding; conditions: non-GPCR control
Source text: as §1, §2, §3

[4] = tested on: GST-fused IGF1 (insulin growth factor I receptor) C-tail; experiment: GST-pull down, IGF1 C-tail; format: binding; conditions: non-GPCR control
Source text: as §1, §2, §3

GST-fused GPCR C-tails = experiment: GST-pull down, GPCR C-tails; format: binding
Source text: as §1, §2
as §3, with “experiments. […]” for “experiments.”

GST-fused ADRB2 C-tail = experiment: GST-pull down, ADRB2 C-tail; format: binding; conditions: central domain compared to full-length GASP-1
Experimental: as §4
as §3, with “The mixture was incubated for 1 h at 4°C with gentle rocking. The beads were washed five times with the same ice-cold buffer, resuspended in 30 µl SDS-PAGE sample buffer, incubated 10 min at 65°C, and pelleted for 60 s at 3000 g.” left out

GST-fused CNR2 C-tail = experiment: GST-pull down, CNR2 C-tail; format: binding; conditions: central domain compared to full-length GASP-1
Experimental: as §4
as §3, with “The mixture was incubated for 1 h at 4°C with gentle rocking. The beads were washed five times with the same ice-cold buffer, resuspended in 30 µl SDS-PAGE sample buffer, incubated 10 min at 65°C, and pelleted for 60 s at 3000 g.” left out

Row | Molecule | GASP-1 fragment input retained by ADRB1 C-tail (GST-fused ADRB1 C-tail) [%] | interaction with the DOR C-tail (GST-fused DOR C-tail [1]) | interaction with FZ4 C-tail (GST-fused FZ4 C-tail) | interaction with DOR C-tail (GST-fused DOR C-tail [2]) | interaction with TGFβ C-tail [3] | interaction with IGF1 C-tail [4] | GASP input retained by GPCR C-tails (GST-fused GPCR C-tails; percent of GASP input) [%] | interaction with GPCR C-tails (GST-fused GPCR C-tails; twelve GPCR C-tails) | interaction with ADRB2 C-tail (GST-fused ADRB2 C-tail) | interaction with CNR2 C-tail (GST-fused CNR2 C-tail)
1 | amino acids 924 to 1395: carboxyl-terminal fragment of GASP-1, contains 2 GASP motifs (protein, [35S]-methionine labelled) CCVSKPEDDEEMIVESWFWSRDKAIKETGTVATCESKPENEEGAIVGSWFEAEDEVDNRTDNGSNCGSRTLADEDEAIVGSWFWAGDEAHFESNPSPVFRAICRSTCSVEQEPDPSRRPQSWEEVTVQFKPGPWGRVGFPSISPFRFPKEAASLFCEMFGGKPRNMVLSPEGEDQESLLQPDQPSPEFPFQYDPSYRSVQEIREHLRAKESTEPESSSCNCIQCELKIGSEEFEELLLLMEKIRDPFIHEISKIAMGMRSASQFTRDFIRDSGVVSLIETLLNYPSSRVRTSFLENMIRMAPPYPNLNIIQTYICKVCEETLAYSVDSPEQLSGIRMIRHLTTTTDYHTLVANYMSGFLSLLATGNAKTRFHVLKMLLNLSENLFMTKELLSAEAVSEFIGLFNREETNDNIQIVLAIFENIGNNIKKETVFSDDDFNIEPLISAFHKVEKFAKELQGKTDNQNDPEGDQEN | 5 | strong interaction | – | – | – | – | – | – | – | –
2 | GASP-1: GPCR-associated sorting protein 1 (protein, [35S]-methionine labelled) MTGAEIESGAQVKPEKKPGEEVVGGAEIENDVPLVVRPKVRTQAQIMPGARPKNKSKVMPGASTKVETSAVGGARPKSKAKAIPVSRFKEEAQMWAQPRFGAERLSKTERNSQTNIIASPLVSTDSVLVAKTKYLSEDRELVNTDTESFPRRKAHYQAGFQPSFRSKEETNMGSWCCPRPTSKQEASPNSDFKWVDKSVSSLFWSGDEVTAKFHPGNRVKDSNRSMHMANQEANTMSRSQTNQELYIASSSGSEDESVKTPWFWARDKTNTWSGPREDPNSRSRFRSKKEVYVESSSGSEHEDHLESWFGAGKEAKFRSKMRAGKEANNRARHRAKREACIDFMPGSIDVIKKESCFWPEENANTFSRPMIKKEARARAMTKEEAKTKARARAKQEARSEEEALIGTWFWATDESSMADEASIESSLQVEDESIIGSWFWTEEEASMGTGASSKSRPRTDGERIGDSLFGAREKTSMKTGAEATSESILAADDEQVIIGSWFWAGEEVNQEAEEETIFGSWFWVIDAASVESGVGVSCESRTRSEEEEVIGPWFWSGEQVDIEAGIGEEARPGAEEETIFGSWFWAENQTYMDCRAETSCDTMQGAEEEEPIIGSWFWTRVEACVEGDVNSKSSLEDKEEAMIPCFGAKEEVSMKHGTGVRCRFMAGAEETNNKSCFWAEKEPCMYPAGGGSWKSRPEEEEDIVNSWFWSRKYTKPEAIIGSWLWATEESNIDGTGEKAKLLTEEETIINSWFWKEDEAISEATDREESRPEAEEGDIIGSWFWAGEEDRLEPAAETREEDRLAAEKEGIVGSWFGAREETIRREAGSCSKSSPKAEEEEVIIGSWFWEEEASPEAVAGVGFESKPGTEEEEITVGSWFWPEEEASIQAGSQAVEEMESETEEETIFGSWFWDGKEVSEEAGPCCVSKPEDDEEMIVESWFWSRDKAIKETGTVATCESKPENEEGAIVGSWFEAEDEVDNRTDNGSNCGSRTLADEDEAIVGSWFWAGDEAHFESNPSPVFRAICRSTCSVEQEPDPSRRPQSWEEVTVQFKPGPWGRVGFPSISPFRFPKEAASLFCEMFGGKPRNMVLSPEGEDQESLLQPDQPSPEFPFQYDPSYRSVQEIREHLRAKESTEPESSSCNCIQCELKIGSEEFEELLLLMEKIRDPFIHEISKIAMGMRSASQFTRDFIRDSGVVSLIETLLNYPSSRVRTSFLENMIRMAPPYPNLNIIQTYICKVCEETLAYSVDSPEQLSGIRMIRHLTTTTDYHTLVANYMSGFLSLLATGNAKTRFHVLKMLLNLSENLFMTKELLSAEAVSEFIGLFNREETNDNIQIVLAIFENIGNNIKKETVFSDDDFNIEPLISAFHKVEKFAKELQGKTDNQNDPEGDQEN | – | – | strong interaction | significant interactions | no interaction was detected | no interaction was detected | > 10 | medium to strong interactions | interact with GASP-1 | interact with GASP-1
